Consider one molecule from article PMC2447227, “The Interaction Between Endopolygalacturonase From Fusarium Moniliforme and PGIP from Phaseolus Vulgaris Studied by Surface Plasmon Resonance and Mass Spectrometry” (Comparative and Functional Genomics, 2001).

Assay [1] deals with T1, endopolygalacturonase from Fusarium moniliforme, native (glycosylated) enzyme expressed in Saccharomyces … (Fusarium moniliforme, UniProt Q07181 25-373, N-linked high-mannose type glycans (up to 14 Man residues in the chain at Asn65); four potential N-glycosylation sites; glycoforms of 43, 46 and 50 kDa).
T1 construct: endopolygalacturonase (PG), Fusarium moniliforme; calculated mass of the polypeptide 36198 Da (36.2 kDa); also called FmPG; PG; source: expressed in Saccharomyces cerevisiae, purified
T1 sequence: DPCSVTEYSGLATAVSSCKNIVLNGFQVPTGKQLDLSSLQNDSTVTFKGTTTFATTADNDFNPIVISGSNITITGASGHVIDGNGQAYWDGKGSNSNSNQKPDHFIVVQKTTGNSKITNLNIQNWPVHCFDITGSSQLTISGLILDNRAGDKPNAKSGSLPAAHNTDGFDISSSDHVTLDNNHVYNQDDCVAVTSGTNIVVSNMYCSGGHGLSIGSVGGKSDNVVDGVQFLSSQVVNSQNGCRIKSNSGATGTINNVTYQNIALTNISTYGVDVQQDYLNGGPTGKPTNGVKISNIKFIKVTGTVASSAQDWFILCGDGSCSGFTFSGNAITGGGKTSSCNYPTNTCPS
The experiment in a line: SPR; PGIP-2 immobilised by amine coupling on a CM5 chip (4000-5000 RU), BIACORE X; PG solutions in 25 mM ammonium acetate buffer pH 5.0 injected at 5 ul/min; buffer-treated reference flow-cell; bound deglycosylated enzyme eluted with NH4HCO3 pH 8 and analysed by MALDI-TOF MS. Conditions: both partners purified. A general note: SPR reads the build-up and loss of mass on a sensor chip optically.

The target in assay [2] is T2, endopolygalacturonase from Fusarium moniliforme deglycosylated with endo-H (Fusarium moniliforme, UniProt Q07181 25-373, a single GlcNAc residue at each of the four N-glycosylation sites (observed mass 37110 Da against 36198 Da calculated for the polypeptide)).
T2 construct: endopolygalacturonase (PG), Fusarium moniliforme; the same polypeptide as m2, glycans trimmed by endo-H; calculated mass of the polypeptide 36198 Da; also called PG + EndoH; deglycosylated FmPG; source: expressed in Saccharomyces cerevisiae, purified, deglycosylated with endo-H
T2 sequence: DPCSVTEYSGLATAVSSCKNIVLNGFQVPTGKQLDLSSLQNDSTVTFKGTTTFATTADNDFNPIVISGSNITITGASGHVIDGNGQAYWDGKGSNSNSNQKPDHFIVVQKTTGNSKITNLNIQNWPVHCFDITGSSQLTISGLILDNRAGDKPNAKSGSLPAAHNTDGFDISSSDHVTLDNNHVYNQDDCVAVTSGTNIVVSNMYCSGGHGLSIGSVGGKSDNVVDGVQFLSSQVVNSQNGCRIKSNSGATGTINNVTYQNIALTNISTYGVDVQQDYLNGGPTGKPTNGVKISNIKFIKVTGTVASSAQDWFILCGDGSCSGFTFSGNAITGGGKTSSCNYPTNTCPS
Described as above. Particulars: both partners purified.

B1: polygalacturonase-inhibiting protein PGIP-2 of Phaseolus vulgaris (natural protein, UniProt P58822 30-342, looked up)
chain: ELCNPQDKQALLQIKKDLGNPTTLSSWLPTTDCCNRTWLGVLCDTDTQTYRVNNLDLSGLNLPKPYPIPSSLANLPYLNFLYIGGINNLVGPIPPAIAKLTQLHYLYITHTNVSGAIPDFLSQIKTLVTLDFSYNALSGTLPPSISSLPNLVGITFDGNRISGAIPDSYGSFSKLFTSMTISRNRLTGKIPPTFANLNLAFVDLSRNMLEGDASVLFGSDKNTQKIHLAKNSLAFDLGKVGLSKNLNGLDLRNNRIYGTLPQGLTQLKFLHSLNVSFNNLCGEIPQGGNLQRFDVSAYANNKCLCGSPLPACT
notes: a leucine-rich repeat protein; also called bean PGIP-2; source: Nicotiana benthamiana plants infected with PVX, purified
Take B1: the binding result in assay [1] and in assay [2] was “binds” each time.
